Like-named read-outs stand apart in the source and are kept apart here.
What was measured:
Test in all cases: analytical size exclusion chromatography
SuhB [1] = target: T1, SuhB (Escherichia coli, UniProt P0ADG4 1-267)
[2] = target: NusB;NusEdelta (S10 lacking the ribosome binding loop) (Escherichia coli;Escherichia coli, UniProt P0A780;P0A7R5 1-139;1-45+68-103, |internal_change)
[3] = target: RNA polymerase;NusA;NusB;NusEdelta (S10 lacking the ribosome binding loop);NusG;SuhB (Escherichia coli;Escherichia …, UniProt P0A7Z4;P0A8V2;P0A8T7;P0A800;P0AFF6;P0A780;P0A7R5;P0AFG0;P0ADG4 …, |||internal_change||)
SuhB [4] = target: T1, SuhB; remark: listed apart in the source

B1: rrnG RNA (structured_RNA)
RNA: GGGCCGCGCCGCUGAGAAAAAGCGAAGCGGCACUGCUCUUUAACAAUUUAUCAGACAAUCUGUGUGGG
B1: binds (SuhB [1]); binds [2].

B2: rrnG-EC scaffold (T-DNA, NT-DNA, rrnG RNA) (mixed)
DNA 1: ATCCGTATCTTCGAGTGCCCACACAGATTGTCTCATAAATTGTTAAAGAGCAGTGCCGC
DNA 2: GCGGCACTGCTCTTTAACAATTTATCAGACTTGTCCACGCTCGTCTCGAAGATACGGAT
RNA: B1 RNA
B2: binds [3].

B3: random RNA (ssRNA)
RNA: UUUUUGAGUCUGCGGCGCGCG
B3: no binding (SuhB [4]).

From PMC6614797
